Results on 11 sequences are retold here after the Immune Epitope Database (IEDB).

One may read the Kd as the equilibrium constant for the complex coming apart. Lower therefore signals a tighter complex.

One test addresses HLA-C*15:02. Briefly: IEDB peptide-MHC binding, purified MHC/direct/fluorescence; filed as Kd, often an IC50 or EC50 that approximates it; ≥ and ≤ were set here for values at or beyond the usual limits of such assays.
The next test addresses HLA-C*14:02. Described as above.
In a further test the target is HLA-A*24:02. Briefly: IEDB peptide-MHC binding, purified MHC/competitive/fluorescence; filed as Kd, often an IC50 or EC50 that approximates it; ≥ and ≤ were set here for values at or beyond the usual limits of such assays.
Test [1] concerns the target HLA-A*24:03. The test is described as follows: IEDB peptide-MHC binding, purified MHC/direct/fluorescence; filed as Kd, often an IC50 or EC50 that approximates it; ≥ and ≤ were set here for values at or beyond the usual limits of such assays.
The target of the next test is HLA-C*06:02. Described as above. To be noted: source organism: Cryptosporidium parvum.
Test [2] deals with HLA-B*51:01. The test is described as follows: IEDB peptide-MHC binding, purified MHC/competitive/fluorescence; filed as Kd, often an IC50 or EC50 that approximates it; ≥ and ≤ were set here for values at or beyond the usual limits of such assays. To be noted: source organism: Vaccinia virus WR.
The target in a further test is HLA-C*08:02. Briefly: IEDB peptide-MHC binding, purified MHC/direct/fluorescence; filed as Kd, often an IC50 or EC50 that approximates it; ≥ and ≤ were set here for values at or beyond the usual limits of such assays. To be noted: source organism: Vaccinia virus WR.
The next test addresses HLA-C*12:03. Described as above. To be noted: source organism: Vaccinia virus WR.
A further test addresses HLA-A*02:01. The test is described as above.
The target in the next test is HLA-A*69:01. The test is described as above.
In another test the target is HLA-B*27:03. The test is described as above.
Test [3] addresses HLA-B*51:01. The description is as above.
In a further test the target is HLA-B*39:01. Described as above.
The target in another test is HLA-A*02:03. The description is as above.
Another test has as its target HLA-A*02:16. Described as above.
Another test has as its target HLA-A*03:01. The test is described as above.
A further test concerns the target HLA-C*03:03. The test is described as above. To be noted: source organism: Campylobacter jejuni subsp. jejuni 81-176.
Another test concerns the target HLA-A*02:12. The test is described as above.
For a further test, the target named is HLA-A*02:19. Described as above.
In a further test the target is HLA-B*15:01. Described as above.
A further test concerns the target HLA-A*29:02. The description is as above.
The target of the next test is HLA-B*46:01. The description is as above.
Another test deals with HLA-A*02:11. Described as above.
For the next test, the target named is HLA-A*26:01. Described as above.
A further test has as its target HLA-A*23:01. The description is as above. To be noted: source organism: Toxoplasma gondii.
For another test, the target named is HLA-B*57:01. The test is described as above.
In the next test the target is HLA-B*15:17. The description is as above.
A further test addresses HLA-A*68:02. The test is described as above. The settings on record: source organism: Toxoplasma gondii.
Another test has as its target HLA-B*18:01. Described as above.
The next test concerns the target HLA-C*07:02. The test is described as above. To be noted: source organism: Cryptosporidium parvum Iowa II.
The target of test [4] is HLA-A*24:03. The test is described as follows: IEDB peptide-MHC binding, purified MHC/competitive/fluorescence; filed as Kd, often an IC50 or EC50 that approximates it; ≥ and ≤ were set here for values at or beyond the usual limits of such assays. The settings on record: source organism: Escherichia coli str. K-12 substr. MG1655.
Setting [5] is: source organism: Cryptosporidium parvum.
The mark [6] stands for this setting: source organism: Camelpox virus M-96.
[7] abbreviates: source organism: Campylobacter jejuni subsp. jejuni 81116.
The mark [8] stands for this setting: source organism: Toxoplasma gondii.
Where [9] appears, read: source organism: Toxoplasma gondii RH.
[10] abbreviates: source organism: Staphylococcus aureus subsp. aureus N315.

Turning to YTASVVAAY, the Kd was at least 20 µM with HLA-C*15:02 (source organism: Homo sapiens) and 0.098 µM in the test with HLA-C*14:02 (source organism: Homo sapiens).

For the sequence RYMYIYLFI, the Kd with HLA-A*24:02 (setting [5]) is 0.0036 µM; in the test with HLA-A*24:03 [1] (setting [5]), 0.004 µM; in the test with HLA-C*06:02, at least 20 µM.

For YLYETYHLI, the Kd with HLA-B*51:01 [2] was 4 µM; with HLA-C*08:02, at least 20 µM; in the test with HLA-C*12:03, 0.155 µM; with HLA-A*02:01 (setting [6]), 0.002 µM; with HLA-A*69:01 (setting [6]), 0.0038 µM.

Turning to YTNYPFLFF, the Kd in the test with HLA-B*27:03 (setting [7]) is at least 20 µM; with HLA-C*15:02 (source organism: Campylobacter jejuni subsp. jejuni 81-176) it was 0.025 µM; with HLA-B*51:01 [3] (setting [7]) it was at least 20 µM; with HLA-B*39:01 (setting [7]) it was at least 20 µM; with HLA-A*02:03 (setting [7]) it was at least 20 µM; with HLA-A*02:16 (setting [7]), at least 20 µM. Further, the Kd is at least 20 µM with HLA-A*02:01 (setting [7]); at least 20 µM with HLA-A*03:01 (setting [7]); 0.159 µM with HLA-C*03:03; at least 20 µM with HLA-A*02:12 (setting [7]); at least 20 µM with HLA-A*02:19 (setting [7]).

For the sequence LPPVVPPLI, the Kd with HLA-B*15:01 (setting [8]), with HLA-A*29:02 (setting [8]), with HLA-B*46:01 (setting [8]), with HLA-A*02:11 (setting [8]), in the test with HLA-A*26:01 (setting [8]) and with HLA-A*23:01 was at least 20 µM each time. Besides, the Kd in the test with HLA-B*27:03 (setting [8]) is at least 20 µM; with HLA-A*24:03 [1] (setting [8]), at least 20 µM; in the test with HLA-B*51:01 [3] (setting [8]), 0.201 µM; with HLA-B*57:01 (setting [8]), at least 20 µM; with HLA-B*39:01 (setting [8]) it was at least 20 µM; with HLA-B*15:17 (setting [8]), at least 20 µM. Further, the Kd with HLA-A*02:03 (setting [8]), with HLA-A*02:16 (setting [8]), with HLA-A*68:02, in the test with HLA-A*02:01 (setting [8]), with HLA-A*03:01 (setting [8]) and with HLA-A*69:01 (setting [8]) was at least 20 µM in each case. Also, the dissociation constant (Kd) with HLA-A*02:12 (setting [8]), in the test with HLA-B*18:01 (setting [8]) and with HLA-A*02:19 (setting [8]) was at least 20 µM throughout.

With THADAHTQL, the Kd in the test with HLA-B*15:01 (setting [9]), with HLA-A*29:02 (setting [9]), with HLA-B*46:01 (setting [9]), in the test with HLA-A*02:11 (setting [9]), with HLA-A*26:01 (setting [9]) and with HLA-B*27:03 (setting [9]) was at least 20 µM each time. The Kd with HLA-A*24:03 [1] (setting [9]), with HLA-B*51:01 [3] (setting [9]), with HLA-B*57:01 (setting [9]), with HLA-B*15:17 (setting [9]), in the test with HLA-A*02:03 (setting [9]) and with HLA-A*02:16 (setting [9]) was at least 20 µM in each case. Moreover, the dissociation constant (Kd) in the test with HLA-A*02:01 (setting [9]), with HLA-A*03:01 (setting [9]), with HLA-A*69:01 (setting [9]), with HLA-A*02:12 (setting [9]), with HLA-B*18:01 (setting [9]) and in the test with HLA-A*02:19 (setting [9]) was at least 20 µM each time.

For NYKWWWFSF, the results for the Kd in the test with HLA-A*24:02 (source organism: Cryptosporidium parvum Iowa II) and with HLA-C*07:02 were 0.0023 µM and 0.181 µM, respectively.

For the sequence AYPELACAV, the equilibrium dissociation constant (Kd) with HLA-A*24:03 [4] was 0.406 µM; with HLA-C*14:02 (source organism: Escherichia coli str. K-12 substr. MG1655) it was at most 0.001 µM.

In the case of KWMMAMRYPI, in the test with HLA-A*24:02 (source organism: Influenza A virus (A/chicken/Fujian/25/00(H9N2))), the Kd turned out to be 0.0032 µM.

As to RTQAVIYAF, the Kd in the test with HLA-C*15:02 (setting [10]) turned out to be 1.4 µM; in the test with HLA-A*24:03 [1] (source organism: Bacillus anthracis), 0.0013 µM; with HLA-C*14:02 (setting [10]) it was 0.133 µM.

In turn, RYSKKFKPEI yielded a Kd in the test with HLA-A*24:02 (source organism: Influenza A virus (A/Swine/Indiana/9K035/99 (H1N2))) of 0.033 µM.
